Experimental findings from a protein production outcome set (Wang et al. 2014) are described below.

This series can be described thus: label from the status in PepcDB records.
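Also: failed if final PepcDB status was selected cloned or expressed and not failed if soluble or beyond.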

“MVKNEVLMRVAELLKHRAENLVKHTEFKQWMSPSVREYWDDILNKTQSRPLFGWVKDLHLPANEDTPIPEPIELKPEAQALYDELQTQVGEVIHTGDWLLVDQERINQFGAVTEDMQWIHTNPDRAALESPFKTTIAHGFLTLALLPKLTDSVDEEKTLFPTAKMVVNIGLNSVRFPYPVKAGNRVRAVSTLSKVTPIKKGLEIEREIKVEIEGVRRPGCVVVSVIQLHF”: the protein production result is listed as “failed”.

As to “MVKRTSHKQASCPVARPLDVIGDGWSMLIVRDAFEGLTRFGEFQKSLGLAKNILAARLRNLVEHGVMVAVPAESGSHQEYRLTDKGRALFPLLVAIRQWGEDYFFAPDESHVRLVERDSGQPVPRLQVRAGDGSPLAAEDTRVSRD”, the protein production result was “not failed”.

For “MVKTAVLMATYNGEIFISEQLDSIRQQTLKPDYVLLRDDCSTDETVNVVNNYIAKHELEGWKIVKNDKNLGWRLNFRQLLIDVLAYEVDYVFFSDQDDIWYLDKNERQFAIMSDKPQIEVLSADVDIKTMSTEASVPHFLTFSSSDRISQYPKVYDYQTFRPGWTIAMKRDFAQAIADNWTFGANISHDNLIETTASIIGNGYNLNESVGVHIRYGGNASGNSKFVLNWKSPKTQHITGLKTFVDFYETMQKVVNKYQNDVALNQRLAFEKERLEASKLSLIHNSAFVIKNWRLYNSNSGRMRDLLFAFKKLEHHHHHH”, the protein production entry is listed as “not failed”.

Turning to “MVKTKKEDLNQFLIPRLNTIYETLQLFDGTASPTVERVNWNDVLQMSDHLSKQATIVGMLWTGESPKADSLKETMESYFNALQGFLLCCHGSTLGAGPTLSSIIHVSVKQIVDSSFRLLQGSVSLYEGSYEKDKKPSIPQLSGVVWEACSSFKKVPATNITAIGRAITQVAVSMKDVLREMKEVKPACPLSECEASGDNMSSDDDDDDDLGDDLSPEEMEVATMVTEIVSETIMVIKELIRVITGMIKMENPKDNSGFVESLEKLLKLCQGTGVQIDELGACVYPPQEMNKMKQTVKVIQGNLDEFETEVERLKSSSDGFSGACGKLRNSLKHMETELDKRCEAELVVEMQNVTLDS”, the protein production result is recorded as “failed”.

In the case of “MVLARAPEPHGGGNRLNSATMRVYLGKTHKHPHQNRRHTVSDISDYIVSHFKRSSREIGEVERRILELSHQKKLVSSDINAEFSAGASLGDRLADNIAKVGGSWGFILSFCFFLIFWAIINTIVLTTRAFDPYPFIFLNLLLSMLAAIQAPIIMMSQNRQAARDRFEAAKDYEVNLKAELEVLSLHEKIDVKVLAELAALRQDIAAIHHHVTRKDD”, the protein production entry is on record as “failed”.

In the case of “MVLHVMLGEVVTKFLNMNNGVGEGGSQQRELHGKRKLFRGNDFAFSIARMAVAQICESVEVNPYQESQTREGVRFSSFQESALDTLTDVAVQYIQSIGKTAHLYANLAGRVDGNSLDILQALEDLGSGLGFAGVSDTDHCLADSGVVKDIIRYTGEAEEIPFVYSLPRFPFSKEKKPAPSFSEVGAEPPDEHIPVWLPAFPETELCDRSEETNAATIEGEIPSKENGSSLPSMQLSFDGGGRLEIHKSSKDVGESTEAVVEGNLFLTAPLRFVEKNVSPVVRPLELSNEVVRTNHVPDKHVRNNHHIPILEASAPSDKINNKNWLAISKDVEKVDVARKELTLVRFKIGTTKRSMCLAKNRSFQEEGWFQEGEDKREKTSEIKEKRERIDSQLSTQM”, the protein production entry was “failed”.

With “MVLIGTVVNGAAIVIAALIGLLVKNIPERVKTTLMQAIGLAIVLLGVKMGLQTEQFLIVICSLVIGGVIGEMINLEKRLDHLGRWIESKVGGKKDGSIATAFVTTTLIYVVGAMAVLGALDSGLRGDHSVLLTKALLDGFLAILFTSTLGIGVLFSAIPVVLYQGSIALFASQIDQYVPTALMDSFITEMSATGGVMIVAIGLNLLNVVNIRVANLLPSLVIVAVLVTFVYKGFPF”, the protein production entry is reported as “failed”.

For the sequence “MVLTLDLADPAQPEHVFIVEDSRGATELKLYKSHYTIGKADSCDIRLHSIYASRQHATLVRFLTENGEVRYRLIDGDPETSRRSANGTYVNNRSITECDLKHYDQILFGADVKATYFYLSPQFRSLEHHHHHH”, the protein production result is “not failed”.

Consider “MVLTSGAGASLVLLNTFSEIYMRISTRVIGGALIATLLTQLTACGTIFYPDRRGQIGGKIDPVVAAMDAIGILFYVIPGLIAFGIDFATGAIYYPGGRTAQVDPAKLQEAVSPDGKVDNLKLQAILESELGQRLPLNDPRLIQHRGSIEQLASLGLVPAA”, for which the protein production entry is listed as “failed”.

For the sequence “MVMIMELLYAITAFILGMLHALEPGHGKSVVAAYILGTKADLKDAILLGTTITISHTAVIFLLGILSIYLLESLNVDVVHDMMSVVGGLILIAVGIWIIRSYLHPHEHKVDTKKGVITLGLSAGLVPCPAALAVLLLSISSGNLIDGLIYVAIFSIGLAISLTGLAVAFVESKELIKKYVGNRKVSKLPLISGSIIILIGLYTIAHPILEHAIV”, the protein production result is on record as “failed”.

Regarding “MVMQQIKKIGNSFWYMTPVSETDRPILGMVVGQEKTLMIDAGNSEEHAQLFLEMLKEQNVSNPDFVALTHWHWDHIFGLPVLQDALSIAHSETKKEMRTLVSYEWTDEALDARVKEGTEIAFCADCIKKEFEEKARNINIIPPTLTFQNQMELDLGEVTCVLKHVGGDHAHDSVVIYVKEEKILFLGDCIYADIFSSKWNYTTKRTFALIDELEKFDAETYILSHGEAINREEFLQEIRMLKAVGTYTEAHKGDEEKIKAAYKQELDRELNEDELETITYFVNGYEMNNQ”, the protein production entry is recorded as “failed”.

In the case of “MVNPIVVAAKQGQWQLVQEYLFAAASDQVNQRDERGLTVLMYAVASLEMTTVKQLLQAGADPNRSRPPHGITPLMLLAGLQSNPNNPEKNPVQQAIAAMLMEFGAEVNQGNDDGTTALMMAAYRNNLPLVETLLAGGARAKIQDQQGTTALEWAIKQQNLSMVRKLIEHHAPLDLSDGDGNLPLTLAIKTGDRVIVDYLLQAGAPWDQNGWFTAVEEGNVDQVKAFIQGGYPLTQAGDGGDTALHIACLEGYQSMVTILLEKGPKDMVNAVNQAGDTALHLAIAQGHVEIVTQLLNAGADGNFSSNGEPPLLTALTATHGNAQTQAVMVNALGRAGVDLDQTLWEGKTPLMLAAMANLAAVITTIANYSVQVNRGDPNGSTALMWACHRGHGAAVEALLTNFPALDLNLKNQGGQTALDLARLNHHGAIVALLESYISRSA”, the protein production entry is on record as “failed”.

As to “MVNRFVLEPKTVLEGEQEQKLKDSEAAVASLQTSKEYLEKQVAEVENNLRELLQQEPGIAQQIMSMSM”, the protein production entry is on record as “failed”.

With “MVPDPFRVGPWTSVREAARLMAQRRVGSLVVVEDGQVLGVVTSRDLRGAHPNRLVVDVLKGPPVAISPEASLLEAKRLMEAKGLERLLVMRDRKLLGILTQGTLAFALGQHFDPLTGLPRADLLRHHLESLLAQGKDPTLLFVDLDDFGRLNKENGHPFGDRVLKTLGQRLKGFAQDLGGEVYRYGGDEFALVFPHPRQALLPALPSLLSPLEVEGKRVGFSVGVAGGRRRQRRVSANPSATADDLLKLASLASTHAKRQGSGWAPAEALKAKEGAPEGVSSPKEPQSAWGDNRRAARGGGGPRSGGRGSGPTGP”, the protein production result was “failed”.

In the case of “MVPDVFIEVSLVIFIAFFISLVMRMLKQPLIIGYILTGILVSPYFLNIVRFEESISTLGHYGVTILLFMVGISLNPGYFKEIGKISLITGLGQILFTFSIGFLISVFLGYSLIESMYISIALTFSSTIIIMKLISDKGDIDKLYGKISIGFLIVQDIVAMAILVLISAFNVQSGAGELLFLIISKIVLILTAIYIFTKYALSNFISYASKNQEFLFLFSLMWCFTLASLFHLLGFSSEIGALIAGIVLAIFPERYEIASKVRPLRDFFLILFFVVLGVQMTFETSGNFIIPAIILSIFVLFGNPIIVMILMGAFGYTKKTGFLAGLTVAQISEFSLIIASLGLRNGHISQEIVSMITLIGIMTIAGSSYFITYSERIYALLSNYLSIFEKKTKISEKDFKNKNTGEIILFGADRTGKNILNVIENSKERFLIIDYNPKIIKNLSKRGYNSVYGDASNLELLNELNFKESKMLISTISDIETDILLIKTILKSNKNAIIIVIAHKIEDAIKLYEEGASYVIMPHFLGSIHASLMIQKYGLNIEEFLKEKSNHIESLKKSQELFRHTK”, the protein production entry was “failed”.

Take “MVPPRVSLLLRAETVVRPSVSAFPRKLPLVDMTAADALVGTTLAHRYRVESKIANGGMATVFLAHDLRLDRRVALKVMHANLARDPQFVQRFINEALAVAKLSHPNVVQVYDQGSDQGHVYLAMEYVAGQTLRAALKARTRFSPAEALRIMVPILAGLGAAHQAGMVHRDMKPENVLITHDGQIKVADFGLARAAEASQQGLTKTGTLMGTAAYLSPEQITHSTADARSDVYACGIMLYELLTGRQPHTGDSPIAVAYQHVNEDVPRPSRVVPGIPPEVDSLVVRATERDPAYRLANAGQFLAAVFAAQKALDEQPSAAVTSVMEMAPAPAGDTAEDSDNATRTLQGVELPPVEYDDYEDDRPPRPSLRTPLLVATVLLLVVAVGFGWWMVDGRYETVPDLVGVESDEARRDLRMLGFRVQTAEEPAYSDEAPPGTVAATDPEAGSRLLPDTLVTLILSAGPQYVEMPDVEGASVAEARDALKEVGLTDIVEDEITSFDNPPGTVITTKPAPGEKANREESVTLTISAGFPMPNVVGQKVDDARRLLESSDLEVTVVEEHHDEVPEGHVISQEPEAETTVGAGQSVTLTVSSGPELVEVPDIRGWKVDKARKELEERGFEVTVHQVIGNRVGDYNPKGEAPKGSTIEIWTSPFGRERDRDRGREDRLWIGLD”: the protein production entry was “failed”.

Consider “MVPQTGRAARATRESGRQTRDALFTAATELFLEHGEGVPITQICAAAGAHPNQVTYYYGSKERLFVEVACAAVLRAGKRAEDDAATAETVGDYTEKLVGSLLGPGAPSVELFTSAMLMTGRRSELRDLITDTLRTLHSSGEVALIRTLMRTGWQLRAGIDVESKAFWSAIFGLVIQKTATGESFGYSLEEAVAVIFANLQIPETVRNTSID”, for which the protein production result was “not failed”.

Turning to “MVPVVSPGPLVPVADFGPLDRLRGWIVTGLITLLATVTRFLNLGSLTDAGTPIFDEKHYAPQAWQVLNNHGVEDNPGYGLVVHPPVGKQLIAIGEAIFGYNGFGWRFTGALLGVVLVALVVRIVRRISRSTLVGAIAGVLLICDGVSFVTARTALLDGFLTFFVVAAFGALIVDRDQVRERMHIALLAGRSAATVWGPRVGVRWWRFGAGVLLGLACATKWSGVYFVLFFGAMALAFDVAARRQYQVQRPWLGTVRRDVLPSGYALGLIPFAVYLATYAPWFASETAIDRHAVGQAVGRNSVVPLPDAVRSLWHYTAKAFHFHAGLTNSAGNYHPWESKPWTWPMSLRPVLYAIDQQDVAGCGAQSCVKAEMLVGTPAMWWLAVPVLAYAGWRMFVRRDWRYAVVLVGYCAGWLPWFADIDRQMYFFYAATMAPFLVMGISLVLGDILYHPGQGSERRTLGLIVVCCYVALVVTNFAWLYPVLTGLPISQQTWNLEIWLPSWR”, the protein production result was “failed”.

With “MVPYLDGEDVAGVQSRVRMYNADENLLTKMQDIEFALFGNLIMRSRMKMGVPAFLGGNGQLVKRRAVEEIGGWDGYAVTEDLNLSVKLMLRGYDVKFSSEAEVFQEAVGDWPAFFRQRTRWLIGNLETLFVYLAPLIDAPITLHRKLDSLFYLFSMLFIGFVMLGYVVFILNLAGFTLRMNAPFIIGIISTIAFFPLVITGIRRDGYSLPRTLILSIEYWAYCLYLLPLFIVAAVHMIRRRERRWAKTFHTG”, the protein production result is “failed”.

For the sequence “MVQIQGCVVAAALCAVITLIAMQWLMAFDAANLVMLYLLGVVVVALFYGRWPSVVATVINVVSFDLFFIAPRGTLAVSDVQYLLTFAVMLTVGLVIGNLTAGVRYQA”, the protein production entry is recorded as “not failed”.

Take “MVQMNNFLFDAQNIATPLMLVDLDDTLFQTHRRIVPQTDFKMVTTDKQGQALAYMNPIQQHFVQWLLHSTHLIPVTARSAEALSRVHLPFQYGAVCSHGGTVLNPDFSVNVDWHVQMQQALTSYQERQQILIDALQQQAINFGSIRTWVVEEQGLGLYIVAKQNTENDNPYAPNFLPELLNSLSSEVLEGFYFHLNGNNLALIPQPVSKANAARFVLQQFASQQRPILGFGDSLSDVEFLNLCHWWGMPNHSQLNRWVKHNLTQQYKQEGFYGDYQ”: the protein production entry is reported as “failed”.
